Reference: paper PMC12721328, “DNA extrusion size determines pathway choice during CAG repeat expansion”

Target: MSH2 (MutSβ subunit);MSH3 (MutSβ subunit) (human;human, UniProt P43246;P20585 1-934;1-1137, |)
Assay: SPR; 10 mM Mg2+; FAN1 SPR: 20 mM Tris-HCl pH 7.6, 70 mM NaCl, 10 mM CaCl2, 1 mM EDTA, 0.01% P-20, 1 mM DTT, 0.05 mg/ml BSA, 5°C; MutSβ SPR: 10 mM Tris-HCl pH 7.6, 150 mM NaCl, 10 mM MgCl2, 1 mM EDTA, 1 mM DTT, 0.005% P-20 (samples held at 10°C)
Details: protein: recombinant;recombinant, tags: ;, copies: 1;1, label: 5'-biotin on strand 1, 5'-digoxigenin on strand 2, blunt

B1: (CAG)1 extrusion mr78 (dsDNA)
DNA 1: CGAATTTCTAGACTCGAGATCAGCTGCTAGGTCGAGTCTAGAG
DNA 2: CTCTAGACTCGACCTAGCAGATCTCGAGTCTAGAAATTCG
B1 gave a Kd (central 3-nt extrusion in strand 1, 20 bp each side) of 0.5 ± 0.1 nM.

B2: (CAG)2 extrusion mr78 (dsDNA)
DNA 1: CGAATTTCTAGACTCGAGATCAGCAGCTGCTAGGTCGAGTCTAGAG
DNA 2: CTCTAGACTCGACCTAGCAGATCTCGAGTCTAGAAATTCG
B2 showed a Kd (central 6-nt extrusion in strand 1, 20 bp each side) of 0.5 ± 0.16 nM.

B3: (CAG)3 extrusion mr78 (dsDNA)
DNA 1: CGAATTTCTAGACTCGAGATCAGCAGCAGCTGCTAGGTCGAGTCTAGAG
DNA 2: CTCTAGACTCGACCTAGCAGATCTCGAGTCTAGAAATTCG
B3 gave a Kd (central 9-nt extrusion in strand 1, 20 bp each side) of 1.2 ± 0.4 nM.

B4: (CAG)13 extrusion mr78 (dsDNA)
DNA 1: CGAATTTCTAGACTCGAGATCAGCAGCAGCAGCAGCAGCAGCAGCAGCAGCAGCAGCAGCTGCTAGGTCGAGTCTAGAG
DNA 2: CTCTAGACTCGACCTAGCAGATCTCGAGTCTAGAAATTCG
Work on B4 yielded a Kd (central 39-nt extrusion in strand 1, 20 bp each side) of 4.2 ± 1.5 nM.
